Reference: the supplement of paper PMC9732359
± gives the uncertainty stated by the source.

Assay: protein stability index of a GFP-peptide fusion (yeast GPS) (PSI 1-4); higher = more stable; sorted into four equal gates, so the index is relative within each strain
Outline: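 Sequencing reads from sorted gates were used to score each peptide. The library consisted of tiled 17-residue yeast protein peptides fused downstream of GFP on a Cherry-expressing plasmid, pooled and carried in yeast. Mid-log cultures in leucine-free medium were split into four equal gates by GFP/Cherry ratio, and each gate's plasmids were PCR-amplified and Illumina-sequenced. The protein stability index adds up, over all gates, the read frequency multiplied by the gate number.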

GTFGGDGMYSESKLSLE [FAS2]
protein stability index (doa10∆): 2.91 ± 0.046
protein stability index (pdr5∆): 2.66 ± 0.051
protein stability index (san1∆): 3.35 ± 0.036
protein stability index (ubr1∆): 2.87 ± 0.04

GTFKSTLDREYITLKAT [QCR2]
protein stability index (doa10∆): 1.39 ± 0.065
protein stability index (pdr5∆): 1.44 ± 0.044
protein stability index (san1∆): 1.51 ± 0.099
protein stability index (ubr1∆): 1.49 ± 0.047

GTGLQSYLEERERQVNE [RPC53]
protein stability index (doa10∆): 3.17 ± 0.16
protein stability index (pdr5∆): 3.24 ± 0.12
protein stability index (san1∆): 3.14 ± 0.11
protein stability index (ubr1∆): 3.25 ± 0.13

GTGRAVARIPRVGGGGT [RPL4A]
protein stability index (san1∆): 2.68 ± 0.21

GTLDINPDDDYGFKQEI [FAS1]
protein stability index (doa10∆): 3.12 ± 0.26
protein stability index (pdr5∆): 3.21 ± 0.15
protein stability index (san1∆): 2.79 ± 0.099
protein stability index (ubr1∆): 3.04 ± 0.086

GTLGEIFIRCNNVLYIR [SMX3]
protein stability index (doa10∆): 3.57 ± 0.21
protein stability index (pdr5∆): 3.27 ± 0.1
protein stability index (san1∆): 2.9 ± 0.1
protein stability index (ubr1∆): 3.26 ± 0.1

GTSLKVAPVSEIVNMVP [SIR2]
protein stability index (doa10∆): 2.24 ± 0.089
protein stability index (pdr5∆): 2.65 ± 0.089
protein stability index (san1∆): 2.7 ± 0.069
protein stability index (ubr1∆): 2.37 ± 0.058

GTTATGTGLFGQQTAQP [YGR119C/NUP57]
protein stability index (doa10∆): 2.91 ± 0.16
protein stability index (pdr5∆): 2.76 ± 0.079
protein stability index (san1∆): 3.02 ± 0.18
protein stability index (ubr1∆): 3 ± 0.14

GTWSAKEAVFKSLGVKS [FAS2]
protein stability index (doa10∆): 2.94 ± 0.088
protein stability index (pdr5∆): 3.34 ± 0.089
protein stability index (san1∆): 3.23 ± 0.1
protein stability index (ubr1∆): 2.88 ± 0.094

GVDAMSVDDLKKLNKNK [RPL1A]
protein stability index (doa10∆): 3.33 ± 0.078
protein stability index (pdr5∆): 3.14 ± 0.12
protein stability index (san1∆): 3.25 ± 0.058
protein stability index (ubr1∆): 3.73 ± 0.11

GVHDGEVEPALLLLQDY [RPN1]
protein stability index (doa10∆): 3.13 ± 0.2
protein stability index (pdr5∆): 3.46 ± 0.17
protein stability index (ubr1∆): 2.44 ± 0.24

GVHTGQFIYAGKKASLN [RPL2A]
protein stability index (pdr5∆): 3.51 ± 0.19
protein stability index (san1∆): 3.15 ± 0.1
protein stability index (ubr1∆): 3.4 ± 0.12

GVIALGQFVTLGCTLVT [RMP1]
protein stability index (doa10∆): 2.65 ± 0.24
protein stability index (pdr5∆): 1.36 ± 0.15
protein stability index (san1∆): 1.18 ± 0.15
protein stability index (ubr1∆): 1.5 ± 0.12

GVLLRDAHGVTQARVIT [RPS13]
protein stability index (doa10∆): 2.4 ± 0.075
protein stability index (pdr5∆): 2.57 ± 0.093
protein stability index (san1∆): 2.85 ± 0.14
protein stability index (ubr1∆): 2.27 ± 0.082

GVTDLFRHFIGIKAKHD [ISW2]
protein stability index (doa10∆): 1.2 ± 0.13
protein stability index (pdr5∆): 1.43 ± 0.11

GVTSLGIKATNGVVIAT [PRE8]
protein stability index (doa10∆): 2.82 ± 0.14
protein stability index (pdr5∆): 2.62 ± 0.16
protein stability index (san1∆): 3.05 ± 0.1
protein stability index (ubr1∆): 3.28 ± 0.29

GVTSLIKNLGLPSDRCS [RPP1]
protein stability index (doa10∆): 2.29 ± 0.068
protein stability index (pdr5∆): 2.26 ± 0.072
protein stability index (san1∆): 1.5 ± 0.12
protein stability index (ubr1∆): 1.69 ± 0.062

GWYHSHPGFGCWLSSVD [RPN11]
protein stability index (doa10∆): 2.72 ± 0.12
protein stability index (pdr5∆): 3.09 ± 0.072
protein stability index (san1∆): 2.35 ± 0.087
protein stability index (ubr1∆): 2.64 ± 0.12

GYVETPRGLRSLTTVWA [RPL3]
protein stability index (doa10∆): 1.75 ± 0.29

HAERDLALAETLKLRAR [SRP68]
protein stability index (doa10∆): 2.95 ± 0.15
protein stability index (pdr5∆): 2.74 ± 0.27

HAGTAIGIMASDGIVLA [PRE9]
protein stability index (doa10∆): 2.96 ± 0.095
protein stability index (pdr5∆): 3.02 ± 0.14
protein stability index (san1∆): 3.09 ± 0.1
protein stability index (ubr1∆): 2.42 ± 0.14

HALYLAPSGIRMHLAPA [SSN2]
protein stability index (doa10∆): 1.32 ± 0.085
protein stability index (pdr5∆): 2.05 ± 0.085
protein stability index (san1∆): 2.09 ± 0.13
protein stability index (ubr1∆): 2.04 ± 0.061

HDELDMNECIADQDMED [ESC2]
protein stability index (doa10∆): 3.22 ± 0.092
protein stability index (pdr5∆): 2.64 ± 0.11
protein stability index (san1∆): 2.87 ± 0.07
protein stability index (ubr1∆): 2.97 ± 0.074

HDFIKGLIMLNLQPASV [NUT1]
protein stability index (doa10∆): 1.83 ± 0.059
protein stability index (pdr5∆): 1.24 ± 0.071
protein stability index (san1∆): 1.22 ± 0.14
protein stability index (ubr1∆): 1.24 ± 0.065

HDGGFDLVHIKDSLDNT [RPS4A]
protein stability index (doa10∆): 2.05 ± 0.079
protein stability index (pdr5∆): 2.26 ± 0.06
protein stability index (san1∆): 2.73 ± 0.12
protein stability index (ubr1∆): 2.33 ± 0.04

HEAYSIIEKITDQILQL [RRP45]
protein stability index (doa10∆): 2.55 ± 0.22
protein stability index (pdr5∆): 2.31 ± 0.2

HELITNIGETAGVVQDI [RPB9]
protein stability index (doa10∆): 2.82 ± 0.066
protein stability index (pdr5∆): 2.79 ± 0.054
protein stability index (san1∆): 3.27 ± 0.07
protein stability index (ubr1∆): 3.22 ± 0.057

HFELGGEKKQKGQALQF [RPL42A]
protein stability index (doa10∆): 2.72 ± 0.17
protein stability index (pdr5∆): 2.88 ± 0.1
protein stability index (san1∆): 2.46 ± 0.094
protein stability index (ubr1∆): 2.76 ± 0.13

HFSKDDYSPESKGFVEN [RPO21]
protein stability index (doa10∆): 2.88 ± 0.17
protein stability index (pdr5∆): 2.28 ± 0.17

HFVQEEPLAFYLEESFT [RGR1]
protein stability index (doa10∆): 2.32 ± 0.044
protein stability index (pdr5∆): 2.43 ± 0.039
protein stability index (san1∆): 2.67 ± 0.04
protein stability index (ubr1∆): 2.69 ± 0.031

HGGGNHQHIGKASTISR [RPL2A]
protein stability index (doa10∆): 3.18 ± 0.051
protein stability index (pdr5∆): 3.31 ± 0.052
protein stability index (san1∆): 3.08 ± 0.039
protein stability index (ubr1∆): 3.11 ± 0.04

HGIVFQHPFPLAHSQHR [SSN2]
protein stability index (doa10∆): 2.14 ± 0.066
protein stability index (pdr5∆): 2.23 ± 0.068
protein stability index (san1∆): 2.01 ± 0.085
protein stability index (ubr1∆): 2.38 ± 0.078

HGMTLRESFEDNVVRFL [RPO21]
protein stability index (doa10∆): 3.27 ± 0.098
protein stability index (pdr5∆): 3.09 ± 0.12
protein stability index (san1∆): 3.29 ± 0.089
protein stability index (ubr1∆): 3.17 ± 0.078

HGQKGVCGIIVKQEDMP [RET1]
protein stability index (doa10∆): 2.93 ± 0.24
protein stability index (pdr5∆): 1.35 ± 0.16

HIGHSALKGPVRDKLDE [DPB4]
protein stability index (doa10∆): 3.29 ± 0.085
protein stability index (pdr5∆): 3.18 ± 0.068
protein stability index (san1∆): 3.11 ± 0.084
protein stability index (ubr1∆): 3.2 ± 0.083

HIILDTISECNLYDDVK [MED1]
protein stability index (doa10∆): 2.49 ± 0.073
protein stability index (pdr5∆): 3.18 ± 0.087
protein stability index (san1∆): 3.19 ± 0.067
protein stability index (ubr1∆): 3 ± 0.11

HILFQNNPDMMIQPPQQ [ROX3]
protein stability index (doa10∆): 2.94 ± 0.062
protein stability index (pdr5∆): 2.96 ± 0.07
protein stability index (san1∆): 3.06 ± 0.066
protein stability index (ubr1∆): 3.02 ± 0.046

HIRRMVPLAMGIVSVSD [RPN1]
protein stability index (doa10∆): 1.32 ± 0.039
protein stability index (pdr5∆): 1.61 ± 0.052
protein stability index (san1∆): 1.55 ± 0.083
protein stability index (ubr1∆): 1.57 ± 0.044

HISKIIGLDTQQVEGKL [RPN6]
protein stability index (doa10∆): 2.95 ± 0.071
protein stability index (pdr5∆): 3.43 ± 0.093
protein stability index (san1∆): 2.9 ± 0.065
protein stability index (ubr1∆): 2.86 ± 0.059

HKHALHGTAKALAAAKK [RPL29]
protein stability index (doa10∆): 2.398 ± 0.023
protein stability index (pdr5∆): 2.425 ± 0.02
protein stability index (san1∆): 2.24 ± 0.023
protein stability index (ubr1∆): 2.323 ± 0.018

HKYVLTLQLYMVHREFL [RGR1]
protein stability index (doa10∆): 1.38 ± 0.039
protein stability index (pdr5∆): 1.47 ± 0.037
protein stability index (san1∆): 1.86 ± 0.055
protein stability index (ubr1∆): 2.1 ± 0.034
